Data from publication PMC6614449, “Targeting DNAJB9, a novel ER luminal co-chaperone, to rescue ΔF508-CFTR” (Scientific Reports, 2019).

Target: T1, full length FLAG-CFTR (WT-CFTR) (UniProt P13569 1-1480)
T1 construct: Cystic Fibrosis transmembrane-conductance regulator (CFTR), wild type, 1,480 amino acids; Surface CFTR was probed with anti-FLAG on fixed cells, so the FLAG tag may lie in an extracellular loop; also called FLAG-WT-CFTR; Cystic Fibrosis transmembrane-conductance regulator; source: HEK293 cells stably expressing it; purified on anti-FLAG resin (ProtoArray) or in whole-cell lysate (co-IP)
Experiment: peptide or protein array; ProtoArray protein microarray (Invitrogen / ThermoFisher) probed with purified full length FLAG-CFTR in solution; bound CFTR detected with mouse anti-FLAG monoclonal antibody and Alexa-488 secondary antibody, fluorescence scanner; mean of duplicate
Conditions: both partners purified

T1 sequence (P13569 whole entry): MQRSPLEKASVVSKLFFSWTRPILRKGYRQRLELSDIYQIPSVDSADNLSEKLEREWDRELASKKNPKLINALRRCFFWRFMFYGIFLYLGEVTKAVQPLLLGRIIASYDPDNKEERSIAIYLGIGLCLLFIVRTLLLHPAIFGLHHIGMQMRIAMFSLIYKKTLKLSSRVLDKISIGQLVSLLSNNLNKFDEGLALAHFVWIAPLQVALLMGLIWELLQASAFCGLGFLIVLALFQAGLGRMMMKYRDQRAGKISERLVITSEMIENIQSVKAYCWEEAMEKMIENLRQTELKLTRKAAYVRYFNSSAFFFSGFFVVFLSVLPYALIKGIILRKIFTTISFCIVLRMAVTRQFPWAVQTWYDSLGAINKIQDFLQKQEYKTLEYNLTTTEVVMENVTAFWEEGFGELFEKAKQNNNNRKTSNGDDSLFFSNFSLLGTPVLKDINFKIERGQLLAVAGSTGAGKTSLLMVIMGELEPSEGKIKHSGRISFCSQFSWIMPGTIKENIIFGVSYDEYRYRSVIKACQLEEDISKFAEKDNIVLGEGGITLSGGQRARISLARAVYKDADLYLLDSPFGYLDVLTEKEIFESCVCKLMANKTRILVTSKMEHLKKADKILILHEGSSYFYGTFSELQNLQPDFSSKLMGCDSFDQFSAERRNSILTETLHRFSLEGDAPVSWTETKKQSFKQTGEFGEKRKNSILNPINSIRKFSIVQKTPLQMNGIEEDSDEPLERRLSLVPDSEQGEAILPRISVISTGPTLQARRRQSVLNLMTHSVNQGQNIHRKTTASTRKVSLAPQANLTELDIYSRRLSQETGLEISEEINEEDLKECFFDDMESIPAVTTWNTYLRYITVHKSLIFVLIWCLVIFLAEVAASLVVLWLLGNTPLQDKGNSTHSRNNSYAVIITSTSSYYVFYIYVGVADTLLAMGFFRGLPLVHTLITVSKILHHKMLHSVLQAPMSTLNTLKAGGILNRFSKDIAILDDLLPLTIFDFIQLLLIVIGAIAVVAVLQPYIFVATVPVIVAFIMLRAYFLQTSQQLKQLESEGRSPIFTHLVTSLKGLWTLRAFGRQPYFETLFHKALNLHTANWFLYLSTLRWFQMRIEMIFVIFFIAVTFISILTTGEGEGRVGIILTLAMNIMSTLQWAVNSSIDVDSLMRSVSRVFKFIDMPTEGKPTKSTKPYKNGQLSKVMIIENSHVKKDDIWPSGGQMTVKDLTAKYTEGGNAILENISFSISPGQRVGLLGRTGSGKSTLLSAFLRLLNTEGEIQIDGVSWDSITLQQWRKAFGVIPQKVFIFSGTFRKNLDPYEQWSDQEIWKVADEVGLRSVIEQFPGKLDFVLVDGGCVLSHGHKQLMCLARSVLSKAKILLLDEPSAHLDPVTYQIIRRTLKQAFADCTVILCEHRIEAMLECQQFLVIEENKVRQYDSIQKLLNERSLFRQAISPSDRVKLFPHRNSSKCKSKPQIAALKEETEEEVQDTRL

B1: Na+/H+ Exchange Regulator Factor 1 (on the ProtoArray) (natural protein, UniProt O14745 1-358, looked up)
chain: MSADAAAGAPLPRLCCLEKGPNGYGFHLHGEKGKLGQYIRLVEPGSPAEKAGLLAGDRLVEVNGENVEKETHQQVVSRIRAALNAVRLLVVDPETDEQLQKLGVQVREELLRAQEAPGQAEPPAAAEVQGAGNENEPREADKSHPEQRELRPRLCTMKKGPSGYGFNLHSDKSKPGQFIRSVDPDSPAEASGLRAQDRIVEVNGVCMEGKQHGDVVSAIRAGGDETKLLVVDRETDEFFKKCRVIPSQEHLNGPLPVPFTNGEIQKENSREALAEAALESPRPALVRSASSDTSEELNSQDSPPKQDSTAPSSTSSSDPILDFNISLAMAKERAHQKRSSKRAPQMDWSKKNELFSNL
notes: NHERF1 (EBP50), protein spotted on the ProtoArray; also called NHERF1; EBP50; source: bought: spotted on ProtoArray protein microarray (Invitrogen / ThermoFisher)
  binding result: binds

B2: DNAJB8 (on the ProtoArray) (natural protein, UniProt Q8NHS0 1-232, looked up)
chain: MANYYEVLGVQASASPEDIKKAYRKLALRWHPDKNPDNKEEAEKKFKLVSEAYEVLSDSKKRSLYDRAGCDSWRAGGGASTPYHSPFDTGYTFRNPEDIFREFFGGLDPFSFEFWDSPFNSDRGGRGHGLRGAFSAGFGEFPAFMEAFSSFNMLGCSGGSHTTFSSTSFGGSSSGSSGFKSVMSSTEMINGHKVTTKRIVENGQERVEVEEDGQLKSVTVNGKEQLKWMDSK
notes: DNAJB8, protein spotted on the ProtoArray; source: bought: spotted on ProtoArray protein microarray (Invitrogen / ThermoFisher)
  binding result: binds

B3: DNAJB7 (on the ProtoArray) (natural protein, UniProt Q7Z6W7 1-309, looked up)
chain: MVDYYEVLGLQRYASPEDIKKAYHKVALKWHPDKNPENKEEAERKFKEVAEAYEVLSNDEKRDIYDKYGTEGLNGGGSHFDDECEYGFTFHKPDDVFKEIFHERDPFSFHFFEDSLEDLLNRPGSSYGNRNRDAGYFFSTASEYPIFEKFSSYDTGYTSQGSLGHEGLTSFSSLAFDNSGMDNYISVTTSDKIVNGRNINTKKIIESDQEREAEDNGELTFFLVNSVANEEGFAKECSWRTQSFNNYSPNSHSSKHVSQYTFVDNDEGGISWVTSNRDPPIFSAGVKEGGKRKKKKRKEVQKKSTKRNC
notes: DNAJB7, protein spotted on the ProtoArray; source: bought: spotted on ProtoArray protein microarray (Invitrogen / ThermoFisher)
  binding result: binds
